# In patent EP4707390A1 (PeptiDream Inc., dated 2026):
# Target: T1, Recombinant human IgG1 Fc protein (110-HG, R&D Systems) (human, UniProt P01857-1 100-330 = IgG part)
# T1 construct: domain: Fc; Bought protein; also called human IgG Fc protein; biotinylated Fc
# Assay: display assay, conjugates on linker 1 or 3, biotinylated Fc on streptavidin magnetic beads against beads without Fc, real-time PCR
binder,measurement,value
"MPDCAYHKGELVWCTGGGGSS (C-terminus covalently bonded to the puromycin of the linker; sample treated with oxidized glutathione after reverse transcription, Tested as an mRNA/cDNA-linker-peptide conjugate on monovalent linker 1 or divalent linker 3) [Fc-binding peptide encoded by the translation region of SEQ ID NO: 26]",binding result,binds
